{
  "source": "paper PMC6901024",
  "about": "(Journal of the American Chemical Society, 2019)",
  "proteins": {"B1": {"name": "His6-FtmOx1-Y140F (enzyme)", "chain": "MTVDSKPQLQRLAADADVDRMCRLLEEDGAFILKGLLPFDVVESFNRELDVQMAIPPPKGERLLADKYPPHFKYVPNVATTCPTFRNTVLINPVIHAICEAYFQRTGDYWLSAAFLREIESGMPAQPFHRDDATHPLMHFQPLEAPPVSLSVIFPLTEFTEENGATEVILGSHRWTEVGTPERDQAVLATMDPGDVLIVRQRVVHAGGGNRTTAGKPRRVVLAYFNSVQLTPFETYRTMPREMVESMTVLGQRMLGWRTMKPSDPNIVGINLIDDKRLENVLQLKAADSPA"}},
  "molecular_target": "the molecule itself",
  "assay": "SEC",
  "data": [
    {"protein": "B1", "values": [
      {"measurement": "stoichiometry N", "value": 2}
    ]}
  ]
}
